We go through 1 molecule from patent US20050049201A1, “Detection and removal of lead using lead-binding proteins” (priority 2001, published 2005).

Test [1] in a line: Solid phase assay for lead: protein on nitrocellulose with chromogenic dye. To be noted: combined results, various buffers, pH, salts and dyes. As for the experimental part:
A solid phase assay for the detection of lead was also developed using one or more synthetically produced lead-binding proteins. Both TB4 and ACBP and the various mutants that have been generated from them can be used in this assay. The experiment is performed by binding the protein to a solid surface support, such as nitrocellulose paper, cotton, glass microfibers, or polystyrene beads using, for example, methods described herein. Then the sample to be tested, such as saliva or blood, is placed onto the surface and allowed to react with the protein. After washing with buffer, or example a neutral non-chelating buffer to remove any unreacted material, the sample is treated with a ligand that can detect a lead-leading binding protein complex, for example, a ligand that can cause a color chance upon detecting a lead-protein complex. Examples of such ligands include, sodium sulfide and sodium rhodizonic acid. Furthermore, the concentration of the lead in the sample being tested may be determined by the intensity of the spot produced upon binding of the dye. […]
As a control, the assay was tested using solutions containing several different buffers, pH conditions, and salts for reaction with the sodium sulfide and sodium rhodizonic acid dyes used. […] The pH was determined empirically for rhodizonic acid over a range of pH 4 to pH 8. […]

For test [2] the following is noted: lead binding; Quintanilla-Vega 1995, Smith 1998; read-out: dissociation constant (Kd) of high affinity lead-binding region; cited from earlier work.

B1: acyl-CoA binding protein (protein, listed as Homo sapiens)
chain: MSQAEFEKAAEEVRHLKTKPSDEEMLFIYGHYKQATVGDINTERPGMLDFTGKAKWDAWNELKGTSKEDAMKAYINKVEELKKKYGI
For the molecule B1, the “performance of solid phase lead detection assay” value in test [1] is reported as “works well under various conditions”. The Kd in test [2] is about 1 nM.

One may read the Kd as the constant that tells how readily two partners part at equilibrium.
